# Reference: paper PMC12501005
# T1: AflR 28-57 (Aspergillus flavus, UniProt P41765 28-57)
# T1 chain: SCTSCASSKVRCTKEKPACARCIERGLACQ
# T2: AflR 15-57 (Aspergillus flavus, UniProt P41765 15-57)
# T2 chain: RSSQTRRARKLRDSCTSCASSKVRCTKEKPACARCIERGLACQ
# T3: AflR 26-79 (Aspergillus flavus, UniProt P41765 26-79)
# T3 sequence: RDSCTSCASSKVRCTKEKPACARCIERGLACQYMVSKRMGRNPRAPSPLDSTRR
# T4: AflR 8-98 (Aspergillus flavus, UniProt P41765 8-98)
# T4 sequence: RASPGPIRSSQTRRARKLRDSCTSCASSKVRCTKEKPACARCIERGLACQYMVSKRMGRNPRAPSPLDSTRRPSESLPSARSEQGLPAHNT
# T5: AflR 15-69 (Aspergillus flavus, UniProt P41765 15-69)
# T5 sequence: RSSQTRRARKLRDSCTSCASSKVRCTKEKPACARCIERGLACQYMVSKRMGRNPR
# T6: AflR-DBD (15-79) (Aspergillus flavus, UniProt P41765 15-79)
# T6 sequence: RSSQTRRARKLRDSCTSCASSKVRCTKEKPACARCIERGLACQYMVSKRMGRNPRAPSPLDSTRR
# B1: ver1 (dsDNA)
# DNA 1: TCAGATATTTCGGTCTCCGAGGAAAGAT
# DNA 2: ATCTTTCCTCGGAGACCGAAATATCTGA
# B2: vbs (dsDNA)
# DNA 1: ACCGACTCTCGGACAGCGAGGCAGACCG
# DNA 2: CGGTCTGCCTCGCTGTCCGAGAGTCGGT
# B3: norA (dsDNA)
# DNA 1: ACCGGGCTTTCGGAAAGCGATCAGCTTGT
# DNA 2: ACAAGCTGATCGCTTTCCGAAAGCCCGGT
# B4: vbs inverted repeat (GCG to CCG) (dsDNA)
# DNA 1: ACCGACTCTCGGACACCGAGGCAGACCG
# DNA 2: CGGTCTGCCTCGGTGTCCGAGAGTCGGT
# B5: norA inverted repeat (GCG to CCG) (dsDNA)
# DNA 1: ACCGGGCTTTCGGAAACCGATCAGCTTGT
# DNA 2: ACAAGCTGATCGGTTTCCGAAAGCCCGGT
# Legend:
# AflR 28-57 = biological target: T1, AflR 28-57; experiment: EMSA
# AflR 15-57 = biological target: T2, AflR 15-57; experiment: EMSA
# AflR 26-79 = biological target: T3, AflR 26-79; experiment: FCS
# AflR 8-98 = biological target: T4, AflR 8-98; experiment: FCS
# AflR 15-69 = biological target: T5, AflR 15-69; experiment: FCS
# AflR-DBD (15-79) [1] = biological target: T6, AflR-DBD (15-79); experiment: FCS
# AflR-DBD (15-79) [2] = biological target: T6, AflR-DBD (15-79); experiment: EMSA
Binder,binding result (AflR 28-57),binding result (AflR 15-57),binding result (AflR-DBD (15-79) [2]),other results
B1,no binding,no binding,,Kd (AflR 26-79): 4020 ± 594 nM; Kd (AflR 8-98): 409 ± 137 nM; Kd (AflR 15-69): 1510 ± 250 nM; Kd (AflR-DBD (15-79) [1]): 401 ± 54.5 nM
B2,no binding,no binding,,
B3,no binding,no binding,,
B4,,,binds,
B5,,,binds,
